Assay results as given in US20240116985A1 (published 2024).
Starred links: 1 amine or outer side, 2 acyl side, 3 side chain; linkers in the order of their positions; H or OH if unused. Positions of bridges follow the written chain, without caps; N, C: chain ends. Non-standard residues stand in square brackets, D forms with d. Primed or numbered codes have the meaning given here. PyrS2″ = (S)-3-amino-1-((pent-4-en-1-yloxy)carbonyl)pyrrolidine-3-carboxylic acid (stapling residue), C=CCCCOC(=O)N1CC[C@@](N[*:1])(C(=O)[*:2])C1; RdN″ = (R)-4-(((allyloxy)carbonyl)(methyl)amino)-2-amino-2-methylbutanoic acid (stapling residue), C=CCOC(=O)N(C)CC[C@@](C)(N[*:1])C(=O)[*:2]; B5(4) = 2,2-bis(4-pentenyl)glycine = 2-amino-2-(pent-4-en-1-yl)hept-6-enoic acid (stitching residue), C=CCCCC(CCCC=C)(N[*:1])C(=O)[*:2]; PyrS2 = (S)-3-amino-1-((pent-4-en-1-yloxy)carbonyl)pyrrolidine-3-carboxylic acid, C=CCCCOC(=O)N1CC[C@@](N[*:1])(C(=O)[*:2])C1; RdN = (R)-4-(((allyloxy)carbonyl)(methyl)amino)-2-amino-2-methylbutanoic acid, C=CCOC(=O)N(C)CC[C@@](C)(N[*:1])C(=O)[*:2]; B5(19) = 2-amino-2-(pent-4-en-1-yl)hept-6-enoic acid (bis(4-pentenyl)glycine), C=CCCCC(CCCC=C)(N[*:1])C(=O)[*:2]; B5(3) = 2,2-bis(4-pentenyl)glycine (stitching residue), C=CCCCC(CCCC=C)(N[*:1])C(=O)[*:2]; Qui = (S)-2-amino-3-(quinolin-2-yl)propanoic acid, O=C([C@H](Cc1ccc2ccccc2n1)N[*:1])[*:2]; Phe(F5) = N[C@@H](Cc1c(F)c(F)c(F)c(F)c1F)C(=O)O; S7 = C[C@@](CCCCCC=[*:3])(N[*:1])C(=O)[*:2]; 2Nal = N[C@@H](Cc1ccc2ccccc2c1)C(=O)O; Bta = N[C@@H](Cc1csc2ccccc12)C(=O)O; hTyr = N[C@@H](CCc1ccc(O)cc1)C(=O)O; αAllylPro = C=CC[C@@]1(C(=O)O)CCCN1; tBuAla = CC(C)(C)C[C@H](N)C(=O)O; 3Thi = N[C@@H](Cc1ccsc1)C(=O)O; S8 = C=CCCCCCC[C@](C)(N)C(=O)O; PyrS2(4) = not defined here; hSer = N[C@@H](CCO)C(=O)O; Aib = CC(C)(N)C(=O)O

T1: full-length beta-Catenin (Uniprot ID P35222) (Homo sapiens (Human), UniProt P35222 2-781)
T1 construct: the AlphaScreen assay uses a Histidine (Nickel Chelate) detection kit, so a His tag is likely there; also called B-Catenin; bCat
T1 sequence: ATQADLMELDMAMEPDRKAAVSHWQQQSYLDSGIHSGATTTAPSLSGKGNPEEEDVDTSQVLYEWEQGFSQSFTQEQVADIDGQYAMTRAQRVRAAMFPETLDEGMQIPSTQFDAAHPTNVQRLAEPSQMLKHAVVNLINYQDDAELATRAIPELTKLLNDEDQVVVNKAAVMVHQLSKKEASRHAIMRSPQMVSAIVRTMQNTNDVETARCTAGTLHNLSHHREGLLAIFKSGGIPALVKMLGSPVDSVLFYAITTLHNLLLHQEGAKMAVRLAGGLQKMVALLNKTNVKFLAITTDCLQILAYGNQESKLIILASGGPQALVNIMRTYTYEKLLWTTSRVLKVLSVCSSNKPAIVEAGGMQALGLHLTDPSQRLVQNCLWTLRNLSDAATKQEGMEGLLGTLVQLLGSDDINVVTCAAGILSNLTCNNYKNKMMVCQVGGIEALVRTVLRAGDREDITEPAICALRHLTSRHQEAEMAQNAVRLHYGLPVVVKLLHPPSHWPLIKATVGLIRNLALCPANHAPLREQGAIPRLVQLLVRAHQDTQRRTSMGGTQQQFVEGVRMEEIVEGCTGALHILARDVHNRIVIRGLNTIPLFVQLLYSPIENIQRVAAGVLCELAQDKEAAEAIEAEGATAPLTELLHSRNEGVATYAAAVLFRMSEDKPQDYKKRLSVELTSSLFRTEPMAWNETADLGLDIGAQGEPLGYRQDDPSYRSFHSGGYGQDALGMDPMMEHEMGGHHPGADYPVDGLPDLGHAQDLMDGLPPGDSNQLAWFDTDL

T2: B-cat-Halo (UniProt P35222 2-781)
T2 sequence (looked up): T1 sequence

B1: I-154 (peptide)
peptide: ADIXDEAAFAXFWA
modifications: not fully specified; as printed: Ac-Ala-Asp-Ile-RdN-Asp-Glu-Ala-Ala-Phe-Ala-S7-Phe-Trp-Ala-NH2; N-terminal acetyl, C-terminal amide; RdN(4), S7(11); staple RdN-S7 by olefin metathesis
notes: stapled peptide
B2: I-1793 (peptide)
peptide: Ac-[αAllylPro]D[tBuAla][B5(19)]DHAAF[hSer][PyrS2][3Thi][Bta]Q-NH2
modifications: staple 1-4, 4-11; not fully specified; printed as Ac-PL3-Asp-Npg-B5-Asp-His-Ala-Ala-Phe-Hse-PyrS2-3Thi-BztA-Gln-NH2
B3: I-1794 (peptide)
peptide: Ac-[αAllylPro]D[tBuAla][B5(3)]DHAAF[hSer][PyrS2″][3Thi][Bta]Q-NH2
modifications: staple 1-4, 4-11; not fully specified; printed as Ac-PL3-Asp-Npg-B5-Asp-His-Ala-Ala-Phe-Hse-PyrS2-3Thi-BztA-Gln-NH2

target: T1, full-length beta-Catenin (Uniprot ID …); assay: AlphaScreen competition; full-length beta-catenin with biotin-TCF4(10-53) probe as competitor
Procedure: Equal volume of the titrated peptide was added to the plate and incubated for 15 minutes at 20° C. Then 4 uL of donor and 4 uL acceptor beads at 10 ug/mL were added to the plate, for a 16 uL reaction pool and protected from light for 60 minutes at 20° C. prior to read. Reads were performed on a CLARIOstar plate reader (BMG Labtech) in duplicate, and data were fitted to a 1:1 binding model with hill slope using an in-house script. All provided concentrations are final concentrations.

Binder | EC50 [nM]
Ac-[αAllylPro]DA[B5(4)]DEAAFV[S8]FWA-NH2 (staple 1-4, 4-11, stapled (stitched) peptide composition) [I-135] | 278
Ac-[αAllylPro]DA[B5(19)]DEAAFV[S8]F[2Nal]Q-NH2 (staple 1-4, 4-11, stapled peptide composition) [I-140] | 934
Ac-[αAllylPro]DA[B5(4)]DEAAFV[S8]F[Qui]Q-NH2 (staple 1-4, 4-11, stapled peptide composition) [I-143] | 733
Ac-[αAllylPro]DA[B5(4)]DEAAFV[S8]F[Bta]Q-NH2 (staple 1-4, 4-11, stapled peptide composition) [I-144] | 66
Ac-[Aib]DI[RdN]DEAAFQ[S7]FW-NH2 (staple 4-11, stapled peptide composition) [I-147] | 328
Ac-ADI[RdN″]DEAAFQ[S7]FW-NH2 (staple 4-11, stapled peptide composition) [I-148] | 398
B1 | 828
Ac-ADI[RdN″]DEAAFA[S7]FWH-NH2 (staple 4-11, stapled peptide composition) [I-152] | 752

target: T2, B-cat-Halo; assay: cell-based or functional assay

Binder | NanoBRET Abs IC50 [nM]
Ac-[αAllylPro]D[tBuAla][B5(19)]DYAAF[hSer][PyrS2][3Thi][Bta]Q-NH2 (staple 1-4, 4-11) [I-1783] | > 20000
Ac-[αAllylPro]D[tBuAla][B5(19)]D[hTyr]AAFN[PyrS2][3Thi][Bta]Q-NH2 (staple 1-4, 4-11) [I-1785] | 42300
Ac-[αAllylPro]D[tBuAla][B5(19)]D[hTyr]AAF[hSer][PyrS2][3Thi][Bta]Q-NH2 (staple 1-4, 4-11) [I-1786] | > 20000
Ac-[αAllylPro]D[tBuAla][B5(19)]DWAAFN[PyrS2][3Thi][Bta]Q-NH2 (staple 1-4, 4-11) [I-1788] | 33900
Ac-[αAllylPro]D[tBuAla][B5(19)]D[Phe(F5)]AAFN[PyrS2][3Thi][Bta]Q-NH2 (staple 1-4, 4-11) [I-1790] | 34400
Ac-[αAllylPro]D[tBuAla][B5(19)]D[Phe(F5)]AAF[hSer][PyrS2][3Thi][Bta]Q-NH2 (staple 1-4, 4-11) [I-1791] | > 20000
B2 | > 20000
B3 | 37700
Ac-[αAllylPro]D[tBuAla][B5(3)]DHAAFL[PyrS2(4)][3Thi][Bta]Q-NH2 (staple 1-4, 4-11; not fully specified; reading uncertain) [I-1795] | 22800

target: T1, full-length beta-Catenin (Uniprot ID …); assay: fluorescence polarization competition; full-length beta-catenin with 5FAM-TCF4(10-53) probe as competitor
Procedure: The plate was incubated protected from light for 60 minutes at 20° C. prior to read. Reads were performed on a CLARIOstar plate reader (BMG Labtech) in duplicate, and data were fitted to a 1:1 binding model with hill slope using an in-house script. All provided concentrations are final concentrations.

Binder | EC50 [nM]
Ac-[αAllylPro]DA[B5(4)]DEAAFV[S8]FWA-NH2 (staple 1-4, 4-11, stapled (stitched) peptide composition) [I-135] | 1870
Ac-[αAllylPro]DA[B5(19)]DEAAFV[S8]F[2Nal]Q-NH2 (staple 1-4, 4-11, stapled peptide composition) [I-140] | 2270
Ac-[αAllylPro]DA[B5(4)]DEAAFV[S8]F[Qui]Q-NH2 (staple 1-4, 4-11, stapled peptide composition) [I-143] | 2270
Ac-[αAllylPro]DA[B5(4)]DEAAFV[S8]F[Bta]Q-NH2 (staple 1-4, 4-11, stapled peptide composition) [I-144] | 146
Ac-[Aib]DI[RdN]DEAAFQ[S7]FW-NH2 (staple 4-11, stapled peptide composition) [I-147] | 1640
Ac-ADI[RdN″]DEAAFQ[S7]FW-NH2 (staple 4-11, stapled peptide composition) [I-148] | 2770
B1 | 5000
Ac-ADI[RdN″]DEAAFA[S7]FWH-NH2 (staple 4-11, stapled peptide composition) [I-152] | 5000
